Source: patent US20200079833A1 (AstraZeneca / MedImmune, published 2020)
Starred links: 1 amine or outer side, 2 acyl side, 3 side chain; linkers in the order of their positions; H or OH if unused. Non-standard residues stand in square brackets, D forms with d. Groups on a side chain read outwards from the residue. Primed or numbered codes have the meaning given here. No end group written: not given here. *: point of attachment. γGlu = O=C(O)[C@H](CCC(=O)[*:2])N[*:1]; Stearoyl = CCCCCCCCCCCCCCCCCC(=O)*; Palmitoyl = CCCCCCCCCCCCCCCC(=O)*; αMeF = C[C@](N)(Cc1ccccc1)C(=O)O; αMeK = C[C@](N)(CCCCN)C(=O)O; Lauroyl = CCCCCCCCCCCC(=O)*; αMeS = C[C@](N)(CO)C(=O)O; PEG2′ = not defined here; Aib = CC(C)(N)C(=O)O

Experiments:
Test in all cases: cell-based or functional assay
[1] = target: GLP-1 receptor (GLP-1R), primary cAMP assay (human, UniProt P43220 24-463)
[2] = target: T1, glucose-dependent insulinotropic peptide (gastric inhibitory polypeptide) receptor (GIPR), primary cAMP assay (human, UniProt P48546 22-466)
T1 sequence (looked up): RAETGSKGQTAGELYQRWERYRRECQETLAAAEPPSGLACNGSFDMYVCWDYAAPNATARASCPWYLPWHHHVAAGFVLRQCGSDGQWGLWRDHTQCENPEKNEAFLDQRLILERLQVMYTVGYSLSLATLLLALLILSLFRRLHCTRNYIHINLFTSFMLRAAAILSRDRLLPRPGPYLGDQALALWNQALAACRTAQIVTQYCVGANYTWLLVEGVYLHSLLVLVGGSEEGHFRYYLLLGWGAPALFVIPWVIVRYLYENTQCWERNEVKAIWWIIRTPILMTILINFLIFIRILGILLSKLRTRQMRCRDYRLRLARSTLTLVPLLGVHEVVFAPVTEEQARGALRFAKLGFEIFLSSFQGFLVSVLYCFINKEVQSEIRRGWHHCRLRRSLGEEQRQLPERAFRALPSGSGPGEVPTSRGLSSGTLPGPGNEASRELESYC

[3] = target: glucagon receptor (GCGR), primary cAMP assay (human, UniProt P47871 26-477)
Chain of glucagon receptor (GCGR), primary cAMP assay (P47871 26-477): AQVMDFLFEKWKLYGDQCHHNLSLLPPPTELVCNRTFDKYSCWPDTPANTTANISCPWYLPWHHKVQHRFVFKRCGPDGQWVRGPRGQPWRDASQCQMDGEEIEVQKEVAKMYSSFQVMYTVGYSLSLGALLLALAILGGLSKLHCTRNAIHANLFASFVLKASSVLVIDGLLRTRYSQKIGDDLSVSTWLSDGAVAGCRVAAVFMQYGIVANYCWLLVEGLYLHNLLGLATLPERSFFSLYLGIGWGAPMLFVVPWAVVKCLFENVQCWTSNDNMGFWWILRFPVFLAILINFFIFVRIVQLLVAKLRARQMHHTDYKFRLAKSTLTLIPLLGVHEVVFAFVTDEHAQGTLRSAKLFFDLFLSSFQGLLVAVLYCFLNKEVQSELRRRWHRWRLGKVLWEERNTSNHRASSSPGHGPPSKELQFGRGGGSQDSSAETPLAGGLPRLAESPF

[4] = target: GLP-1 receptor (GLP-1R) (human, UniProt P43220 24-463)
[5] = target: glucagon receptor (GCGR) (human, UniProt P47871 26-477)
Chain of glucagon receptor (GCGR) (P47871 26-477): as above

[6] = target: T2, glucose-dependent insulinotropic peptide (gastric inhibitory polypeptide) receptor (GIPR) (human, UniProt P48546 22-466)
T2 sequence (looked up): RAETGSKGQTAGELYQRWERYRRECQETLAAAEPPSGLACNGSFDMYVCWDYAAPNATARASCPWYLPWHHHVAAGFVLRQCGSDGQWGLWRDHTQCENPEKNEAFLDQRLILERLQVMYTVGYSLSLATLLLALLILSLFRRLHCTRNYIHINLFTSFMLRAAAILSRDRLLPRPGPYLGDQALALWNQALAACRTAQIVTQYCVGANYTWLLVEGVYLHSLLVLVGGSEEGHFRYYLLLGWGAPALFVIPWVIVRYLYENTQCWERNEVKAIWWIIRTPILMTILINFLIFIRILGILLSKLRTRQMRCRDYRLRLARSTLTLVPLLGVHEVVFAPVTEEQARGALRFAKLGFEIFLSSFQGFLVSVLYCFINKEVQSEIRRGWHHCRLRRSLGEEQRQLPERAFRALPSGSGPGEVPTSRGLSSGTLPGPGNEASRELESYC

Binder	Primary assay EC50 (cAMP) Mean [1] [nM]	Primary assay EC50 (cAMP), n1 [1] [nM]	Primary assay EC50 (cAMP), n2 [1] [nM]	Primary assay EC50 (cAMP), n1 [2] [nM]	Primary assay EC50 (cAMP), n2 [2] [nM]	Primary assay EC50 (cAMP), n1 [3] [nM]	Primary assay EC50 (cAMP), n2 [3] [nM]	Primary assay EC50 (cAMP), GLP-1R n1 [4] [nM]	Primary assay EC50 (cAMP), GLP-1R n2 [4] [nM]	Primary assay EC50 (cAMP), Mean pM GLP-1R [4] [pM]	Primary assay EC50 (cAMP), Gluc-R, first run [5] [nM]	Primary assay EC50 (cAMP), Gluc-R, second run [5] [nM]	Primary assay EC50 (cAMP), GIP-R, first run [6] [nM]	Primary assay EC50 (cAMP), GIP-R, second run [6] [nM]
H[Aib]EGS[αMeF]TSDVSK([PEG2′-PEG2′-γGlu-Palmitoyl])YLEGEAA[αMeK]EFIAWK([PEG2′-PEG2′-γGlu-Palmitoyl])VEGG-NH2 [SEQ ID NO: 255]	0.463	0.532	0.393	21.5	21.5	21.5	21.5	–	–	–	–	–	–	–
H[Aib]EGTFTSDVSK([PEG2′-PEG2′-γGlu-Palmitoyl])FLEGEAAEEFIK([PEG2′-PEG2′-γGlu-Palmitoyl])FVVEGG-NH2 [SEQ ID NO: 245]	11.2	12.3	10.2	21.6	21.6	21.6	21.6	–	–	–	–	–	–	–
H[Aib]EGS[αMeF]TSDK([PEG2′-PEG2′-γGlu-Palmitoyl])SSYLEGEAA[αMeK]EFIAWK([PEG2′-PEG2′-γGlu-Palmitoyl])VEGG-NH2 [SEQ ID NO: 261]	0.418	0.414	0.422	23	23	23	23	–	–	–	–	–	–	–
H[Aib]EGS[αMeF]TSDK([PEG2′-PEG2′-γGlu-Palmitoyl])SSYLEGEAA[αMeK]EFIK([PEG2′-PEG2′-γGlu-Palmitoyl])WVVEGG-NH2 [SEQ ID NO: 259]	0.313	0.339	0.287	21.4	21.4	21.4	21.4	–	–	–	–	–	–	–
H[Aib]EGS[αMeF]TSDK([PEG2′-PEG2′-γGlu-Palmitoyl])SSYLEGEAA[αMeK]EFIAK([PEG2′-PEG2′-γGlu-Palmitoyl])VVEGG-NH2 [SEQ ID NO: 260]	0.389	0.334	0.443	21.9	21.9	21.9	21.9	–	–	–	–	–	–	–
H[Aib]EGS[αMeF]TSDV[αMeS]SK([PEG2′-PEG2′-γGlu-Palmitoyl])LEGEAA[αMeK]EFIAK([PEG2′-PEG2′-γGlu-Palmitoyl])VVEGG-NH2 [SEQ ID NO: 266]	0.479	0.4	0.557	22.2	22.2	22.2	22.2	–	–	–	–	–	–	–
H[Aib]EGTFTSDVSK([PEG2′-PEG2′-γGlu-Palmitoyl])FLEGEAAEEFIK([PEG2′-PEG2′-γGlu-Palmitoyl])WVVEGG-NH2 [SEQ ID NO: 243]	3.21	2.93	3.48	21.5	21.5	21.5	21.5	–	–	–	–	–	–	–
H[Aib]EGS[αMeF]TSDV[αMeS]SK([PEG2′-PEG2′-γGlu-Palmitoyl])LEGEAA[αMeK]EFIAWK([PEG2′-PEG2′-γGlu-Palmitoyl])VEGG-NH2 [SEQ ID NO: 267]	0.569	0.628	0.51	21.7	21.7	21.7	21.7	–	–	–	–	–	–	–
H[Aib]EGS[αMeF]TSDV[αMeS]S[αMeF]LEGEAA[αMeK]E[αMeF]IA[αMeF]VVK([PEG2′-Stearoyl])GG-NH2 [SEQ ID NO 197]	–	–	–	–	–	–	–	0.12	0.034	79	27	27	27	27
H[Aib]EGS[αMeF]TSDK([PEG2′-PEG2′-γGlu-Lauroyl])SSYLEGEAA[αMeK]EFIAWK([PEG2′-PEG2′-γGlu-Lauroyl])VEGG-NH2 [SEQ ID NO: 258]	0.0923	0.0596	0.125	22.3	22.3	22.3	22.3	–	–	–	–	–	–	–
H[Aib]EGS[αMeF]TSDV[αMeS]S[αMeF]LEGEAA[αMeK]E[αMeF]IA[αMeF]VVK([PEG2′-PEG2′-Stearoyl])GG-NH2 [SEQ ID NO 198]	–	–	–	–	–	–	–	0.041	0.015	27.9	26	26	26	26
H[Aib]EGS[αMeF]TSDV[αMeS]S[αMeF]LEGEAA[αMeK]E[αMeF]IA[αMeF]VVK([PEG2′-PEG2′-PEG2′-Stearoyl])GG-NH2 [SEQ ID NO 199]	–	–	–	–	–	–	–	0.029	0.0075	18.3	25	25	25	25
H[Aib]EGS[αMeF]TSDVSK([PEG2′-PEG2′-γGlu-Palmitoyl])YLEGEAA[αMeK]EFIAK([PEG2′-PEG2′-γGlu-Palmitoyl])VVEGG-NH2 [SEQ ID NO: 254]	0.205	0.223	0.186	21.9	21.9	21.9	21.9	–	–	–	–	–	–	–
H[Aib]EGTFTSDVSK([PEG2′-PEG2′-γGlu-Palmitoyl])YLEGEAAEEFIK([PEG2′-PEG2′-γGlu-Palmitoyl])WVVEGG-NH2 [SEQ ID NO: 242]	3.85	3.58	4.11	21.4	21.4	21.4	21.4	–	–	–	–	–	–	–
H[Aib]EGTFTSDVSK([PEG2′-PEG2′-γGlu-Palmitoyl])YLEGEAAEEFIK([PEG2′-PEG2′-γGlu-Palmitoyl])FVVEGG-NH2 [SEQ ID NO: 244]	12.3	7.77	16.9	21.6	21.6	21.6	21.6	–	–	–	–	–	–	–
